From patent US20160145299A1 (CENTRE NATIONAL DE LA RECHERCHE SCIENTIFIQUE, published 2016)
Where no end group is shown, it is not given here.

Biological target: cdk2/cyclin A complex (UniProt P24941 1-298; P20248 1-432)
Assay: cell-based or functional assay

B1: Peptide targeting CDK/Cyclin C4: KKQVRMAHLVLT (SEQ ID No: 8) (peptide)
peptide: KKQVRMAHLVLT
modifications: also: fluorescent label Cy5 or FITC, position not given here
  IC50 of cell proliferation, Hela, C4 delivered with Short6: 80 nM
  IC50 of cell proliferation, Hela, C4 delivered with short7: 45 nM
  IC50 of cell proliferation, Hela, C4 delivered with short11: 150 nM
  IC50 of cell proliferation, MCF7, C4 delivered with Short6: 50 nM
  IC50 of cell proliferation, MCF7, C4 delivered with short7: 80 nM
  IC50 of cell proliferation, MCF7, C4 delivered with short11: 200 nM
